# Data reported in article PMC8163975 (The Journal of Biological Chemistry, 2021).
# Numbering of substitutions follows the chain as printed.
# T1: RRAS1, mGppNHp-bound (human, UniProt P10301 1-218)
# T1 construct: human RRAS (RRAS1); Loaded with mGppNHp
# T1 sequence (looked up): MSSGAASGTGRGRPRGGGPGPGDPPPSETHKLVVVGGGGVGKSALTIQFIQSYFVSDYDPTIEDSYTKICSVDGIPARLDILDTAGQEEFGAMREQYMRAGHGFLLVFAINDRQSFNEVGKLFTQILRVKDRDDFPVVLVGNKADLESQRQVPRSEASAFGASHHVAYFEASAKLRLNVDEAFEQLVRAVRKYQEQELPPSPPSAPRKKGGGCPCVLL
# T2: RAP2A, mGppNHp-bound (human, UniProt P10114 1-183)
# T2 construct: human RAP2A; Loaded with mGppNHp
# T2 sequence (looked up): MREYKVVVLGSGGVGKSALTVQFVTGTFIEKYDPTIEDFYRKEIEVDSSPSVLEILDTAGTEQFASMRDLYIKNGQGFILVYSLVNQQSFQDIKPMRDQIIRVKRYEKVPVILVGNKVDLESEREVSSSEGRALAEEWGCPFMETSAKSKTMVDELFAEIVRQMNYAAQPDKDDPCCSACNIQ
# T3: RALA, mGppNHp-bound (human, UniProt P11233 1-206)
# T3 construct: human RALA; Loaded with mGppNHp
# T3 sequence (looked up): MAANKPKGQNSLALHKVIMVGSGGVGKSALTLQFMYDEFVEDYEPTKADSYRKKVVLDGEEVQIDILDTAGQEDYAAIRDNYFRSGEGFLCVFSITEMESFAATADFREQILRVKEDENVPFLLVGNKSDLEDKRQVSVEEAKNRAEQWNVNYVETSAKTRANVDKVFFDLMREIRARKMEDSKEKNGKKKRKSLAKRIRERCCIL
# B1: RASSF9 RA domain, His-tagged MBP fusion (domain or fragment, human, UniProt O75901 25-119, looked up)
# chain: EEKEIVVWVCQEEKLVCGLTKRTTSADVIQALLEEHEATFGEKRFLLGKPSDYCIIEKWRGSERVLPPLTRILKLWKAWGDEQPNMQFVLVKADA
# notes: RASSF9 RAS association (RA) domain, aa 25–119 of O75901; Cloned into pMal-c5X-His; Used in fluorescence polarisation and, coupled to Ni-NTA beads, in the pull-down; source: E. coli, purified (Ni-NTA)
# B2: RASSF7 RA domain, His-tagged MBP fusion (domain or fragment, human, UniProt Q02833 6-89, looked up)
# chain: AAMELKVWVDGIQRVVCGVSEQTTCQEVVIALAQAIGQTGRFVLVQRLREKERQLLPQECPVGAQATCGQFASDVQFVLRRTGP
# notes: RASSF7 RAS association (RA) domain, aa 6–89 of Q02833; Cloned into pMal-c5X-His; Used in fluorescence polarisation and, coupled to Ni-NTA beads, in the pull-down; source: E. coli, purified (Ni-NTA)
# B3: RASSF6 RA domain, MBP fusion protein (domain or fragment, human, UniProt Q6ZTQ3 218-306, looked up)
# chain: YNHETSIFIPAFESETKVRVNSNMRTEEVIKQLLQKFKIENSPQDFALHIIFATGEQRRLKKTDIPLLQRLLQGPSEKNARIFLMDKDA
# notes: RASSF6 RA domain, aa 218-306 of Q6ZTQ3
# B4: RAP1B, mGppNHp-bound (natural protein, human, UniProt P61224 1-184, looked up)
# chain: MREYKLVVLGSGGVGKSALTVQFVQGIFVEKYDPTIEDSYRKQVEVDAQQCMLEILDTAGTEQFTAMRDLYMKNGQGFALVYSITAQSTFNDLQDLREQILRVKDTDDVPMILVGNKCDLEDERVVGKEQGQNLARQWNNCAFLESSAKSKINVNEIFYDLVRQINRKTPVPGKARKKSSCQLL
# notes: human RAP1B; Loaded with mGppNHp
# B5: RASSF2 RA domain, MBP fusion protein (domain or fragment, human, UniProt P50749 176-264, looked up)
# chain: YNHKTSVFTPAYGSVTNVRINSTMTTPQVLKLLLNKFKIENSAEEFALYVVHTSGEKQKLKATDYPLIARILQGPCEQISKVFLMEKDQ
# notes: RASSF2 RA domain, aa 176-264 of P50749
# B6: RASSF3 RA domain, MBP fusion protein (domain or fragment, human, UniProt Q86WH2 79-187, looked up)
# chain: YTGFIKVQMELCKPPQTSPNSGKLSPSSNGCMNTLHISSTNTVGEVIEALLKKFLVTESPAKFALYKRCHREDQVYACKLSDREHPLYLRLVAGPRTDTLSFVLREHEI
# notes: RASSF3 RA domain, aa 79-187 of Q86WH2
# B7: RASSF1 RA domain, MBP fusion protein (domain or fragment, human, UniProt Q9NS23 194-288, looked up)
# chain: RGPGRGTSVRRRTSFYLPKDAVKHLHVLSRTRAREVIEALLRKFLVVDDPRKFALFERAERHGQVYLRKLLDDEQPLRLRLLAGPSDKALSFVLK
# notes: RASSF1 RA domain, aa 194-288 of Q9NS23
# B8: RASSF5 RA domain, MBP fusion protein (domain or fragment, UniProt Q5EBH1 200-358, looked up)
# chain: PPTIQEIKQKIDSYNSREKHCLGMKLSEDGTYTGFIKVHLKLRRPVTVPAGIRPQSIYDAIKEVNPAATTDKRTSFYLPLDAIKQLHISSTTTVSEVIQGLLKKFMVVDNPQKFALFKRIHKDGQVLFQKLSIADYPLYLRLLAGPDTDVLSFVLKENE
# notes: RASSF5 RA domain, aa 200-358 of Q5EBH1 as the methods print it; also called NORE1; RAPL
# B9: RASSF7 RA domain, MBP fusion protein (domain or fragment, human, UniProt Q02833 6-89, looked up)
# chain: B2 chain
# notes: RASSF7 RA domain, aa 6-89 of Q02833
# B10: RASSF8 RA domain, MBP fusion protein (domain or fragment, human, UniProt Q8NHQ8 1-82, looked up)
# chain: MELKVWVDGVQRIVCGVTEVTTCQEVVIALAQAIGRTGRYTLIEKWRDTERHLAPHENPIISLNKWGQYASDVQLILRRTGP
# notes: RASSF8 RA domain, aa 1-82 of Q8NHQ8
# B11: RASSF10 RA domain, MBP fusion protein (domain or fragment, human, UniProt A6NK89 4-133, looked up)
# chain: SEKKISVWICQEEKLVSGLSRRTTCSDVVRVLLEDGCRRRRRQRRSRRLGSAGDPHGPGELPEPPNEDDEDDDEALPQGMLCGPPQCYCIVEKWRGFERILPNKTRILRLWAAWGEEQENVRFVLVRSEA
# notes: RASSF10 RA domain, aa 4-133 of A6NK89
# B12: RASSF4 RA domain, MBP fusion protein (domain or fragment, human, UniProt Q9H2L5 174-262, looked up)
# chain: YNHKTSVFTPAYGSVTNVRVNSTMTTLQVLTLLLNKFRVEDGPSEFALYIVHESGERTKLKDCEYPLISRILHGPCEKIARIFLMEADL
# notes: RASSF4 RA domain, aa 174-262 of Q9H2L5
# B13: RASSF9 RA domain, MBP fusion protein (domain or fragment, human, UniProt O75901 25-119, looked up)
# chain: B1 chain
# notes: RASSF9 RA domain, aa 25-119 of O75901
# B14: RASSF2-to-1 variant of the RASSF2 RA domain, MBP fusion protein (domain or fragment, human, UniProt P50749 176-264, looked up)
# chain: B5 chain with A11K, Y12D, V15K, T16H
# notes: RASSF2 RA domain (aa 176-264 of P50749, the limits of the wild-type construct) with four hotspot residues changed to those of RASSF1; source: gene synthesis (BioCat) in pMal-c5X-His vector; E. coli, purified
# Biological target: T4, RIT1•mGppNHp (human, UniProt Q92963 1-219)
# T4 construct: human RIT1; Loaded with mGppNHp
# T4 sequence (Q92963 whole entry): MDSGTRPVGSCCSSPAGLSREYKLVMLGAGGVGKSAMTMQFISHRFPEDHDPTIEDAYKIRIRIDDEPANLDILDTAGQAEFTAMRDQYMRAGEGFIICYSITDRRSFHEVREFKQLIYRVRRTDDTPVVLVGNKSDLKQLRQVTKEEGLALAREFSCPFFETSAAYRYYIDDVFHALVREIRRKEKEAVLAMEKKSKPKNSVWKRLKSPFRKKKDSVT
# Test: fluorescence polarisation; increasing concentrations of RA/RB domains as MBP fusions (0.002–300 μM) added to mGppNHp-bound RAS proteins (1 μM); 30 mM Tris-HCl pH 7.4, 100 mM NaCl, 5 mM MgCl2, 3 mM DTT; quadratic ligand-binding equation
# Conditions: both partners purified
row,Binder,Kd [µM]
1,B1,27
2,B2,34

# Biological target: T5, HRAS, mGppNHp-bound (human, UniProt P01112-1 1-189)
# T5 construct: human HRAS; Loaded with mGppNHp, a fluorescent non-hydrolysable GTP analogue; That the RAS proteins were the pGEX (GST) constructs is surmised; also called HRAS1; p21HRAS
# Test: fluorescence polarisation; increasing concentrations of the RA/RB domain as MBP fusion protein (0.002-300 µM; or MBP alone) titrated to mGppNHp-bound RAS protein (1 µM); 30 mM Tris-HCl pH 7.4, 100 mM NaCl, 5 mM MgCl2, 3 mM DTT; Kd from a quadratic ligand-binding equation
# Conditions: both partners purified
row,Binder,Kd [µM]
1,B3,91

# Biological target: T6, CRAF RB domain, MBP fusion protein (human, UniProt P04049 51-131)
# T6 construct: source: E. coli (pMal-c5X-His vector), purified as MBP fusion protein
# Test: as above
# Conditions: both partners purified
row,Binder,Kd [µM]
1,B4,30

# Biological target: T1, RRAS1, mGppNHp-bound
# Test: as above
# Conditions: both partners purified
row,Binder,Kd [µM]
1,B5,122
2,B6,435
3,B7,33
4,B8,56
5,B3,112
6,B9,30
7,B10,114
8,B11,99

# Biological target: B4
# Test: as above
# Conditions: both partners purified
row,Binder,Kd [µM]
1,B5,67
2,B6,116
3,B7,26
4,B12,101
5,B8,4
6,B3,65
7,B9,72
8,B10,66
9,B13,74
10,B11,73

# Biological target: T2, RAP2A, mGppNHp-bound
# Test: as above
# Conditions: both partners purified
row,Binder,Kd [µM]
1,B5,47
2,B6,100
3,B7,22
4,B12,88
5,B8,2
6,B3,53
7,B9,68
8,B10,67
9,B13,66
10,B11,67

# Biological target: T3, RALA, mGppNHp-bound
# Test: as above
# Conditions: both partners purified
row,Binder,Kd [µM]
1,B5,167
2,B7,18
3,B12,191
4,B8,49
5,B9,101
6,B10,115

# Biological target: T7, RHEB1, mGppNHp-bound (human, UniProt Q15382 1-184)
# T7 construct: human RHEB1; Loaded with mGppNHp; the discussion speaks of the RHEB G domain
# T7 sequence (Q15382 whole entry): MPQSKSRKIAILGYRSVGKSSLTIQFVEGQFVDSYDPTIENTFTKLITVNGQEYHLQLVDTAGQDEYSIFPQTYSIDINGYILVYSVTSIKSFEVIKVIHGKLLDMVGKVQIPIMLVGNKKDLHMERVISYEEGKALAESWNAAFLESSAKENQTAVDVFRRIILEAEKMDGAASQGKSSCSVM
# Test: as above
# Conditions: both partners purified
row,Binder,Kd [µM]
1,B5,44
2,B6,64
3,B7,37
4,B12,47
5,B8,46
6,B3,56
7,B9,76
8,B10,102
9,B13,143
10,B11,150

# Biological target: T8, RIT1, mGppNHp-bound (human, UniProt Q92963 1-219)
# T8 construct: human RIT1; Loaded with mGppNHp
# T8 sequence (Q92963 whole entry): as the sequence (Q92963 whole entry) above
# Test: as above
# Conditions: both partners purified
row,Binder,Kd [µM]
1,B7,136
2,B12,58
3,B3,98
4,B10,76
5,B11,55

# Biological target: T1, RRAS1, mGppNHp-bound
# Test: as above
# Conditions: both partners purified
# Remark: another data set of the same source
row,Binder,Kd [µM]
1,B14,100

# Biological target: T3, RALA, mGppNHp-bound
# Test: as above
# Conditions: both partners purified
# Remark: another data set of the same source
row,Binder,Kd [µM]
1,B14,49
